According to patent US20230136228A1 (LAMKAP BIO ALPHA, published 2023):
Changes are numbered by the printed parent chain.

What was measured:
[1] = biological target: T1, human CEACAM5 (carcinoembryonic antigen, CEA), cell surface (human, UniProt P06731 35-685); test: cell-based or functional assay
T1 sequence (looked up): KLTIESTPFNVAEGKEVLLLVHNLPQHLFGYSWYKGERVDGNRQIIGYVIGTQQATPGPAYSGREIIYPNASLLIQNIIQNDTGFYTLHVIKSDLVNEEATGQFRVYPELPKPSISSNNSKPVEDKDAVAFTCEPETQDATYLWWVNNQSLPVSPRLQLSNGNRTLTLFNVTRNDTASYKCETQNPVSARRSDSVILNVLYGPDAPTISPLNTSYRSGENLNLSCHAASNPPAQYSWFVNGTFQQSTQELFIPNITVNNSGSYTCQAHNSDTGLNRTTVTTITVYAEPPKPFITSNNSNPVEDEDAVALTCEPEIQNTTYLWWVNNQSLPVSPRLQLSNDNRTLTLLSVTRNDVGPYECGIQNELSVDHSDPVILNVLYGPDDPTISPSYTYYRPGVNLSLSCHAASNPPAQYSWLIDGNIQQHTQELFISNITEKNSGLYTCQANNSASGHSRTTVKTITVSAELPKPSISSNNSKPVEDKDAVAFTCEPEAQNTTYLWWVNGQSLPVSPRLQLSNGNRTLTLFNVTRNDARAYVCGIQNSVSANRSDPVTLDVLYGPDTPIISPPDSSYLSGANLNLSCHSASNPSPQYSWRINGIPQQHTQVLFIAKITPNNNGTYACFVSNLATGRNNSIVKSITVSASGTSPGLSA

human CEACAM1 = biological target: T2, human CEACAM1 (human, UniProt P13688 35-526); test: flow cytometry, transfected PEAK cells
T2 construct: whole, on cells
T2 sequence (looked up): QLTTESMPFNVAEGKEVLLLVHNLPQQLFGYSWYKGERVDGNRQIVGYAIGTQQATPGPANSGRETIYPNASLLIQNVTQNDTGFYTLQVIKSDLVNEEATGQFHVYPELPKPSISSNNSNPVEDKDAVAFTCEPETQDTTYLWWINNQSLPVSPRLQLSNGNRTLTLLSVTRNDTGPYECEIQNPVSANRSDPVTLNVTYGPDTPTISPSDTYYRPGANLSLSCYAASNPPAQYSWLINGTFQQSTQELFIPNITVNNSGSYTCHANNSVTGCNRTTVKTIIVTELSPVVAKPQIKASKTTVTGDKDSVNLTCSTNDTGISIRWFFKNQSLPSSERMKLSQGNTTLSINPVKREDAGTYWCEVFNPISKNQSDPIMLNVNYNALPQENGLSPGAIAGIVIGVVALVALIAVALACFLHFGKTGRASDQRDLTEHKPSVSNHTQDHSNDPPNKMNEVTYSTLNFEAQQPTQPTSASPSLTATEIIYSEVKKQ
Text: (§1) Vectors encoding the full-length version of human CEACAM 1, 3, 4, 5, 6, 7, 8, 18, 19, 20 and […] are used to express these proteins at the surface of PEAK and/or CHO cells as described in Example 1. Similarly, vectors encoding the full-length version of cyno CEACAM 5 and 6 are also used to express these proteins at the surface of PEAK and/or CHO cells. Non-transfected PEAK and/or CHO cells are used as negative control. Cells are harvested, counted, checked for viability and resuspended at 3×10⁶ cells/ml in FACS buffer (PBS 2% BSA, 0.1% NaN₃). 100 μl of the cell suspension are distributed in V-bottom 96-well plates (3×10⁵ cells/well). The supernatant is removed by centrifugation 3 minutes at 4° C., 1300 rpm and the cells incubated for 15 minutes at 4° C. with increasing concentrations of the antibody according to the invention. The antibodies carrying the anti-CEACAM5 arms to test are diluted in FACS buffer and the concentration range is 30 pM-500 nM. Cells are washed twice with cold FACS buffer and re-incubated for further 15 minutes at 4° C. with a compatible anti-human IgG secondary antibody. Cells are washed twice with cold FACS buffer and resuspended in 300 μl FACS buffer with 1:1500-diluted TOPRO-3 (Invitrogen). Fluorescence is measured using a FACSCalibur™ (BD Biosciences) or a Cytoflex Platform (Beckman Coulter). Dose-response binding curves are fitted using GraphPad Prism8 software. In the same manner, CEACAM1, CEACAM6 and other CEACAMs can be characterized.
(§2) For the bispecific antibodies AB17L3-1/N, AB71L3-1/N, AB72L3-1/N, AB73L3-1/N the MFI measured for binding to CEACAM5 transfected cells was found between 29000 and 41000 (Table 2). In contrast MFI found by using PEAK cells transfected with CEACAM 1,3,4,6,8 were found below 1000 with the only exception of a strong signal for AB72L3-1/N on CEACAM8 transfected cells. When MFI values obtained on transfected cells expressing any given CEACAM are divided by the values obtained on WT PEAK cells, “factors to PEAK WT” can be calculated (Table 3).

human CEACAM3 = biological target: T3, human CEACAM3 (human, UniProt P40198 35-252); test: flow cytometry, transfected PEAK cells
T3 construct: whole, on cells
T3 sequence (looked up): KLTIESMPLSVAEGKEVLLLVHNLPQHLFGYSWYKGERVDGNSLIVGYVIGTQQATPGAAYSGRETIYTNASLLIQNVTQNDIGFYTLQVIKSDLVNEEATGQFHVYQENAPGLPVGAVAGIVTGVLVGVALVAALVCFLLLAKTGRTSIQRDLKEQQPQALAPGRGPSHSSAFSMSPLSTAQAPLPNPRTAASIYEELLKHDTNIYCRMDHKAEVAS
Text: as §1, §2

human CEACAM4 = biological target: T4, human CEACAM4 (human, UniProt O75871 36-244); test: flow cytometry, transfected PEAK cells
T4 construct: whole, on cells
T4 sequence (looked up): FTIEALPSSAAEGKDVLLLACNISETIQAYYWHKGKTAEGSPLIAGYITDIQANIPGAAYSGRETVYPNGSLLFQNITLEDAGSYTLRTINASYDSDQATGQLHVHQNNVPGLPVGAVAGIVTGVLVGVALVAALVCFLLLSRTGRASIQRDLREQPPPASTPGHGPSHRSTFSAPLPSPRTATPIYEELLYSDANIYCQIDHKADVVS
Text: as §1, §2

human CEACAM6 = biological target: T5, human CEACAM6 (human, UniProt P40199 35-320); test: flow cytometry, transfected PEAK cells
T5 construct: whole, on cells; also called CD66c
T5 sequence (looked up): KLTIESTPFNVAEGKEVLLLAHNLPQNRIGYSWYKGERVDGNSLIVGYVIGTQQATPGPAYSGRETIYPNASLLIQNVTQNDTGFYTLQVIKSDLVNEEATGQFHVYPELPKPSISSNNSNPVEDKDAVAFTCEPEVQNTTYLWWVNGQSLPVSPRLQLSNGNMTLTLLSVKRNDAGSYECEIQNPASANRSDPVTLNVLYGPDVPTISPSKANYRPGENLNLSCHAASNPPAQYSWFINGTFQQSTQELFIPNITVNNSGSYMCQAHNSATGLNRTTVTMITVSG
Text: as §1, §2

B1: AB17L3-1/N (bispecific antibody, human IgG1, kappa, lambda, L234A L235A)
heavy: EVQLVESGGGLVQPGGSLKLSCAASGFTFNTYAMNWVRQAPGKGLEWVGRIRSKYNNYATYYADSVKDRFTISRDDSKNTAYLQMNSLKTEDTAVYYCVRHGNFGNSYVSWFAYWGQGTLVTVSSASTKGPSVFPLAPSSKSTSGGTAALGCLVKDYFPEPVTVSWNSGALTSGVHTFPAVLQSSGLYSLSSVVTVPSSSLGTQTYICNVNHKPSNTKVDKRVEPKSCDKTHTCPPCPAPEAAGGPSVFLFPPKPKDTLMISRTPEVTCVVVDVSHEDPEVKFNWYVDGVEVHNAKTKPREEQYNSTYRVVSVLTVLHQDWLNGKEYKCKVSNKALAAPIEKTISKAKGQPREPQVYTLPPSREEMTKNQVSLTCLVKGFYPSDIAVEWESNGQPENNYKTTPPVLDSDGSFFLYSKLTVDKSRWQQGNVFSCSVMHEALHNHYTQKSLSLSPG
light 1: EIVLTQSPATLSLSPGERATLSCRASQSVNSNLNWYQQKPGQAPRLLIYHGSNRATGIPARFSGSGSGTDFTLTISSLEPEDFAVYYCQQFDYFKEHNTFGQGTKVEIKRTVAAPSVFIFPPSDEQLKSGTASVVCLLNNFYPREAKVQWKVDNALQSGNSQESVTEQDSKDSTYSLSSTLTLSKADYEKHKVYACEVTHQGLSSPVTKSFNRGEC
light 2: QTVVTQEPSLTVSPGGTVTLTCRSSTGAVTTSNYANWFQQKPGQAPRGLIGGTNKRAPGTPARFSGSLLGGKAALTLSGAQPEDEAEYYCALWYKQRWVFGGGTKLTVLGQPKAAPSVTLFPPSSEELQANKATLVCLISDFYPGAVTVAWKADSSPVKAGVETTTPSKQSNNKYAASSYLSLTPEQWKSHRSYSCQVTHEGSTVEKTVAPTECS
notes: Kappa-lambda body, lead optimization wave 1
- Killing EC50, HPAFII cells (TDCC, LDH release) [1]: 160 pM
- Killing EC50, LS174T cells (TDCC, LDH release) [1]: 250 pM
- Killing EC50, MKN45 cells (TDCC, LDH release) [1]: 110 pM
- binding result (human CEACAM1): no binding (tested: 10 mcg/ml)
- binding result (human CEACAM3): no binding (tested: 10 mcg/ml)
- binding result (human CEACAM4): no binding (tested: 10 mcg/ml)
- binding result (human CEACAM6): no binding (tested: 10 mcg/ml)

B2: AB72L3-1/N (bispecific antibody, human IgG1, kappa, lambda, L234A L235A)
heavy: B1 heavy
light 1: B1 light 1 with G51S, S52T, A55P, T56R, H97Y
light 2: B1 light 2
notes: Kappa-lambda body, lead optimization wave 2
- Killing EC50, HPAFII cells (TDCC, LDH release) [1]: 120 pM
- Killing EC50, LS174T cells (TDCC, LDH release) [1]: 110 pM
- Killing EC50, MKN45 cells (TDCC, LDH release) [1]: 20 pM
- binding result (human CEACAM1): no binding (tested: 10 mcg/ml)
- binding result (human CEACAM3): no binding (tested: 10 mcg/ml)
- binding result (human CEACAM4): no binding (tested: 10 mcg/ml)
- binding result (human CEACAM6): no binding (tested: 10 mcg/ml)
